Measured values published in article PMC6511732.
“And” between values parts separate entries of the source, which are not always exact repeats. Equal values may be shown once. Read-outs that look alike come from different tables or passages of the source.

How the values were obtained:
Test in all cases: native MS
Phycocyanin α6β6 complex = molecular target: Phycocyanin α6β6 complex
[1] = molecular target: Phycocyanin α6β6γ complex
[2] = molecular target: Phycocyanin αβ-heterodimer
[3] = molecular target: Phycocyanin αβ-heterodimer; remark: listed apart in the source
[4] = molecular target: R-phycoerythrin α6β6γ complex

Substance: Phycocyanin α6β6 complex
- stoichiometry N (Phycocyanin α6β6 complex): 2

Substance: Phycocyanin α6β6γ complex
- stoichiometry N [1]: 2

Substance: Phycocyanin αβ-heterodimer (complex)
- stoichiometry N [2]: 6
- stoichiometry N [3]: 3 and 6

Substance: R-phycoerythrin α6β6γ complex
- stoichiometry N [4]: 2
